The values that follow come from patent publication US10428327B2, “Compositions and methods for enhancing homologous recombination” (LIFE TECHNOLOGIES CORPORATION, priority 2016, dated 2019).

Series [1] relates to disrupted EmGFP stable cell lines. The series is described as follows: Homologous recombination (HDR) assay, gain of EmGFP function by flow cytometry. Format: cell-based. The note with it: for Avg (% GFP+ cells): sequential delivery. The method, then:
The JUMP-IN™ system was used to prepare […]™ HEK293 stable cell expressing EmGFP (Thermo Fisher Scientific). The gene sequence of EmGFP is described in Table 5. To create a disrupted EmGFP mutant stable cell line, a gRNA targeting the 5′-[…]-3′ (SEQ ID NO: 125) sequence in EmGFP gene was synthesized. The resulting gRNA (300 ng) was incubated with 1.5 μg of GENEART® […]™ Cas9 nuclease and used to transfect wild type EmGFP cells via electroporation. The single cell clonal isolation was carried out by limiting dilution. The EmGFP loci from non-glowing cells were amplified by PCR using a forward primer 5′-[…]-3′ (SEQ ID NO: 126) and a reverse primer 5′-[…]-3′ (SEQ ID NO: 127) and the resulting PCR products were subjected to TOPO cloning and sequencing. From these clones, a disrupted EmGFP stable cell line containing a deletion of 5′-CACCTT-3′ (SEQ ID NO: 25) was identified (Table 5). In the homologous recombination assay, the gain of EmGFP function was determined by flow cytometric analysis.
(§1) To create homologous recombination (HR) assays, a series of gRNAs flanking the insertion site within the EmGFP gene were designed and synthesized (Table 4). Each individual gRNA was combined with GENEART™ […]™ Cas9 Nuclease to form the Cas9 protein/gRNA ribonucleoprotein complexes (Cas9 RNPs). The Cas9 RNPs were then used to transfect cells via NEON® electroporation. The genomic cleavage efficiency was then evaluated using the GENEART® Genomic Cleavage Detection kit at 48 hours post transfection. The gRNAs with highest editing efficiencies and also in close proximity to the insertion site were selected for the subsequent HR assays. For donor design of a single-stranded oligonucleotide, typically the mutation site was positioned at the center flanked by 30 to 50 nucleotides on each side. For asymmetric donor design, 30 nucleotides were placed on either the left or right arm and then 50 or 67 nucleotides on the right or left arm respectively, in both PAM and non-PAM strands. For design of a dsDNA oligonucleotide with single-stranded overhangs, the insertion element was overlapped in the center flanked by various lengths of ssDNA oligonucleotide on each side. By annealing two single-stranded oligonucleotides at 95° C. for 3 minutes, dsDNA donor molecules with either a 5′ protrusion or a 3′ protrusion were generated. To measure homologous recombination efficiency, the donor DNA was either co-transfected with Cas9 RNPs or delivered sequentially into cells via electroporation. At 48 hours post transfection, the gain of EmGFP function in reporter cell lines was determined by flow cytometric analysis with an Attune® NxT Acoustic Focusing Cytometer (Thermo Fisher Scientific). Alternatively, the genomic loci were PCR-amplified using the corresponding primers and then subjected to GENEART® Genomic Cleavage Detection assay or restriction digestion. The resulting PCR products were also subjected to TOPO cloning. Typically, 96 colonies were randomly picked for sequencing. The sequencing data were analyzed using VECTOR NTI ADVANCE® 11.5 software (Thermo Fisher Scientific).
For each homologous recombination assay, 1.5 μg of Cas9 protein and 360 ng of gRNA were added to Resuspension Buffer R to a final volume of 7 μl, but limiting the total volume of Cas9 protein plus gRNA to less than 1 μl. The gRNA could be diluted in Buffer R if the concentration was too high. Upon mixing, the sample was incubated at room temperature for 5 to 10 minutes to form Cas9 RNPs. Meanwhile, […]™ HEK293 cells expressing either eBFP or disrupted EmGFP were detached from culture flask with TRYPLE™ Express Enzyme and then counted. Aliquots of 1×10^6 cells were washed once with DPBS without Ca^2+ and Mg^2+ and the cell pellets were resuspended in 50 μl of Resuspension Buffer R. A 5 μl aliquot of cell suspension was mixed with 7 μl of Cas9 RNPs. […] The electroporated cells were transferred to 300 μl of […]. […]

The test system of series [2] is eBFP locus in HEK293 cells expressing eBFP. Nature of the series: EcoRI restriction digestion of PCR-amplified eBFP locus (FLAG tag/EcoRI insertion). The format is cell-based. The conditions noted are these: FIG. 11B, length of 3′ overhang, 48 hours.
Text: FIG. 11. Insertion of a FLAG tag along with an EcoRI site using dsDNA donor with single-stranded overhangs. (A) Various donor DNA molecules containing a 30-base FLAG tag along with an EcoRI site were designed and synthesized, including single-stranded DNA donor (ssDNA), blunt-end dsDNA donor (blunt), dsDNA donor with 5′ overhang (5′), dsDNA donor with 3′ overhang (3′). The length of overhangs varied from 6 nucleotides (6), 15 nucleotides (15) to 30 nucleotides (30). The 3′ and 5′ ends of the oligonucleotides harbored two consecutive phosphorothioate-modified bases (Table 4). The short dsDNA donors with and without overhangs were prepared by annealing two short DNA oligonucleotides. […] At 48 hours post transfection, the eBFP locus was PCR-amplified. The resulting PCR fragments were analyzed by the genomic cleavage and detection assays to determine the percentage of Indel or subjected to restriction digestion with EcoRI to determine the percentage of digestion. (B) Length of 3′ overhang. […] Alternatively, a dsDNA donor with 30-base 3′ overhang but without phosphorothioate modification (30-3′n) was used. The percentage of digestion with EcoRI was determined at 48 hours post transfection. (C) Dose effect. […] The eBFP loci were PCR-amplified. The resulting PCR fragments were analyzed by EcoRI digest. (D) Sequencing verification. The PCR fragments were cloned into E. coli and 192 clones were randomly picked for sequencing. The relative percentage of wild type (wt), NHEJ, and HDR clones derived from either ssDNA donor (ssDNA) or dsDNA with 3′ overhangs (3′ overhang) was plotted. The white rectangles represented the population of clones that contained the insert but with a point mutation. Examples of edited clones were shown in (E) (not representing the actual percentages of NHEJ and HDR). The underlined sequences represented the FLAG tag along with an RI site. FIG. 11 discloses SEQ ID NOs: 15-24, respectively, from top to bottom.
as §1, with “The sequencing data were analyzed using VECTOR NTI ADVANCE® 11.5 software (Thermo Fisher Scientific).” left out

Where [3] appears, read: Equal Mass of donor, +5 gRNA, 6 nt insertion.
[4] abbreviates: Equal Molarity of donor, +5 gRNA, 6 nt insertion.

Oligonucleotides are written 5' to 3', each unit as a sugar letter and its base; * is a phosphorothioate linkage, no mark a phosphodiester; rarer units and linkages stand in square brackets, end groups in braces. Plain capitals give the bases only. d = 2'-deoxy (DNA)

Turning to “40: unmodified 40-mer PAM ssDNA donor, EmGFP, SEQ ID 43 (DNA GGCGAAGCACTGCACGCCGTAGGTGAAGGTGGTCACGAGG; DNA, backbone not given here) [compound 40]”, the “Avg (% GFP+ cells)” value in series [1] (setting [3]) was found to be 2.96%; in series [1] (setting [4]) it was 1.38%.
For “PS40: phosphorothioate 40-mer PAM ssDNA donor, EmGFP, SEQ ID 42 (DNA GGCGAAGCACTGCACGCCGTAGGTGAAGGTGGTCACGAGG; 5' phosphate, chemistry not fully specified)” the same measures were 4.35% and 1.79%.

B1: 48-50 NP: symmetric non-PAM strand ssDNA donor, EmGFP, SEQ ID 70 (nucleic acid)
DNA: GTGCTGCTTCATGTGGTCGGGGTAGCGGGCGAAGCACTGCACGCCGTAGGTGAAGGTGGCACGAGGGTGGGCCAGGGCACGGGCAGCTTGCCGGTGG
modifications: DNA, backbone and methylation of C not given here; further chemistry not fully specified
With B1, the “Avg (% GFP+ cells)” value in series [1] ((+3) gRNA, 10 pmol ssDNA donor) turned out to be 9.5%; in series [1] ((+5) gRNA, 10 pmol ssDNA donor), 26.0%; in series [1] ((−3) gRNA, 10 pmol ssDNA donor), 18.3%. Further, the “Avg (% GFP+ cells), normalized HDR efficiency (% EmGFP+ cells/% Indel)” value in series [1] ((+5)gRNA) is given as 38.2%; in series [1] ((−3)gRNA) it was 26.1%.

B2: 30-51 P: asymmetric PAM strand ssDNA donor, EmGFP, SEQ ID 67 (nucleic acid)
DNA: CCGTGCCCTGGCCCACCCTCGTGACCACCTTCACCTACGGCGTGCAGTGCTTCGCCCGCTACCCCGACCACATGAAGCAGC
modifications: chemistry not given here
On to B2, for which the “Avg (% GFP+ cells)” value in series [1] ((+3) gRNA, 10 pmol ssDNA donor) amounted to 4.0%; in series [1] ((+5) gRNA, 10 pmol ssDNA donor), 30.6%; in series [1] ((−3) gRNA, 10 pmol ssDNA donor) it was 34.7%.

B3: 50-30 P: asymmetric PAM strand ssDNA donor, EmGFP, SEQ ID 65 (nucleic acid)
DNA: CCACCGGCAAGCTGCCCGTGCCCTGGCCCACCCTCGTGACCACCTTCACCTACGGCGTGCAGTGCTTCGCCCGCTACCCCG
modifications: DNA, backbone and methylation of C not given here; further chemistry not fully specified
In the case of B3, the “Avg (% GFP+ cells)” value in series [1] ((+3) gRNA, 10 pmol ssDNA donor) turned out to be 8.7%; in series [1] ((+5) gRNA, 10 pmol ssDNA donor), 19.7%; in series [1] ((−3) gRNA, 10 pmol ssDNA donor) it was 24.6%.

B4: 24-3′: dsDNA donor with 24-base 3′ overhangs, annealed SEQ ID 89 and 90 (nucleic acid)
chain 1: dG*dA*dCdTdAdCdAdAdAdGdAdCdGdAdTdGdAdCdGdAdCdAdAdGdAdAdTdTdCdTdTdAdCdGdGdCdGdTdGdCdAdGdTdGdCdTdTdCdAdGdCdCdGdCdTdAdCdC*dC*dC
chain 2: dA*dA*dGdAdAdTdTdCdTdTdGdTdCdGdTdCdAdTdCdGdTdCdTdTdTdGdTdAdGdTdCdGdGdTdCdAdGdGdGdTdGdGdTdCdAdCdGdAdGdGdGdTdGdGdGdC*dC*dA
modifications: further chemistry not fully specified
On to B4, for which the results for the “Avg (% digestion)” value in series [2] and in series [2] (listed as donor DNA molecules with 24-base 3′-protruded ends) were 17.3% and “approximately 15%”, respectively.

B5: 50-30 NP: asymmetric non-PAM strand ssDNA donor, EmGFP, SEQ ID 66 (nucleic acid)
DNA: CGGGGTAGCGGGCGAAGCACTGCACGCCGTAGGTGAAGGTGGTCACGAGGGTGGGCCAGGGCACGGGCAGCTTGCCGGTGG
modifications: chemistry not given here
Take B5: the “Avg (% GFP+ cells)” value in series [1] ((+3) gRNA, 10 pmol ssDNA donor) is 4.1%; in series [1] ((+5) gRNA, 10 pmol ssDNA donor), 30.8%; in series [1] ((−3) gRNA, 10 pmol ssDNA donor), 30.0%.

B6: 30-51 NP: asymmetric non-PAM strand ssDNA donor, EmGFP, SEQ ID 68 (nucleic acid)
DNA: GCTGCTTCATGTGGTCGGGGTAGCGGGCGAAGCACTGCACGCCGTAGGTGAAGGTGGTCACGAGGGTGGGCCAGGGCACGG
modifications: chemistry not given here
For the molecule B6, the “Avg (% GFP+ cells)” value in series [1] ((+3) gRNA, 10 pmol ssDNA donor) came out at 11.3%; in series [1] ((+5) gRNA, 10 pmol ssDNA donor), 20.6%; in series [1] ((−3) gRNA, 10 pmol ssDNA donor) it was 23.7%.

B7: PS79: phosphorothioate 79-mer PAM ssDNA donor, EmGFP, SEQ ID 38 (nucleic acid)
DNA: CATGTGGTCGGGGTAGCGGGCGAAGCACTGCACGCCGTAGGTGAAGGTGGTCACGAGGGTGGGCCAGGGCACGGGCAGC
modifications: 5' phosphate, modified ends, chemistry not fully specified
With B7, the “Avg (% GFP+ cells)” value in series [1] (setting [3]) was 12.94%; in series [1] (setting [4]), 12.53%.

B8: 79: unmodified 79-mer PAM ssDNA donor, EmGFP, SEQ ID 39 (nucleic acid)
DNA: B7 DNA
modifications: DNA, backbone not given here
Regarding B8, the “Avg (% GFP+ cells)” value in series [1] (setting [3]) was determined as 7.99%; in series [1] (setting [4]) it was 7.62%.
